Test results from paper PMC7680125.

Columns and labels:
[1] = target: Isw1 (ISW1a catalytic subunit);Ioc3 (Saccharomyces cerevisiae (BY4742?);Saccharomyces cerevisiae (BY4742)) (UniProt P38144+P43596); assay: EMSA; settings: 35 mM Na-HEPES pH 7.8, 5 mM MgCl2, 0.1 mM EGTA, 0.02 M EDTA (so in the source), 70 mM NaCl, 0.1 mg/ml BSA, 5-8% glycerol, 40 uM 2-mercaptoethanol, 30 C, 30 min …
[2] = target: Isw1 (ISW1a catalytic subunit);Ioc3 dcHLB del496-565 (Saccharomyces cerevisiae (BY4742?);Saccharomyces cerevisiae (BY4742)) (UniProt P38144+P43596); assay: EMSA; settings: 35 mM Na-HEPES pH 7.8, 5 mM MgCl2, 0.1 mM EGTA, 0.02 M EDTA (so in the source), 70 mM NaCl, 0.1 mg/ml BSA, 5-8% glycerol, 40 uM 2-mercaptoethanol, 30 C, 30 min …

Row | Substance | Kd [1] | Kd [2]
1 | 0N70 mononucleosome | 30.3 nM | 32.5 nM
2 | CACCGGCACGGTCGCTGTTCGATACGTGCGCCGGACGTATATATCTGACACGTGCCTGGCGACTAGGGAGCGATCCCCTTGGCGGTTAAAACGCGGGGGACAGCGCGTACGTGCGTTTAAGCGGTGCTAGAGCTGTCTACGACCAATTGAGCGGCCTCGGCACCGGGAATCTCCAGGGCGGCCGCGTATAGGCTCCGGATCCTCTAGAGTCGACCTCGAAACGGGTACCCCAGGGACTTGAAGTAATAAGGACGGAGGGCCTCTTTCAACATCGATGCACGGTGGTTAGCCTTGGATTGCGCTCTACCGAGCGCTAAGCGTACTTAGAAGCGCGAGCGACGACTTCACACGGTAGGTGGGCGCGCGAACTGGGCAGATCC (double strand) [30(N1)50(N2)6 dinucleosome] | 10.2 nM | 28 nM
3 | CCGGACGTATATATCTGACACGTGCCTGGCGACTAGGGAGCGATCCCCTTGGCGGTTAAAACGCGGGGGACAGCGCGTACGTGCGTTTAAGCGGTGCTAGAGCTGTCTACGACCAATTGAGCGGCCTCGGCACCGGGAATCTCCAGGGCGGCCGCGTATAGGCTCCGGATCCTCTAGAGTCGACCTCGAAACGGGTACCCCAGGGACTTGAAGTAATAAGGACGGAGGGCCTCTTTCAACATCGATGCACGGTGGTTAGCCTTGGATTGCGCTCTACCGAGCGCTAAGCGTACTTAGAAGCGCGAGCGACGACTTCACACGGTAGGTGGGCGCGCGAACTGGGCAGATCC (double strand) [0(N1)50(N2)6 dinucleosome] | 45.9 nM | 34.5 nM
4 | TCGGAACGCTATCCGACTGGCACCGGCACGGTCGCTGTTCGATACGTGCGCCGGACGTATATATCTGACACGTGCCTGGCGACTAGGGAGCGATCCCCTTGGCGGTTAAAACGCGGGGGACAGCGCGTACGTGCGTTTAAGCGGTGCTAGAGCTGTCTACGACCAATTGAGCGGCCTCGGCACCGGGAATCTCCAGGGCGGCCGCGTATAGGCTCCGGATCCTCTAGAGTCGACCTCGAAACGGGTACCCCAGGGACTTGAAGTAATAAGGACGGAGGGCCTCTTTCAACATCGATGCACGGTGGTTAGCCTTGGATTGCGCTCTACCGAGCGCTAAGCGTACTTAGAAGCGCGAGCGACGACTTCACACGGTAGGTGGGCGCGCGAACTGGGCAGATCC (double strand) [50(N1)50(N2)6 dinucleosome] | 5.29 nM | 12.5 nM
